Results taken from patent publication US20150266963A1 (ARGEN X B V, published 2015).
Numbering of substitutions follows the chain as printed. Blank lines part the entries; values can stand above or below the binder they belong to.

Experiments:
[1] = molecular target: T1, heat denatured recombinant CD70 (human, UniProt P32970 52-193, limits assumed); assay: ELISA on coated heat denatured recombinant CD70, anti-human IgG-HRP
T1 construct: Same recombinant CD70 as m1, denatured by heating for 5 minutes at 95 C and cooling on ice, coated directly on the plate; also called denatured CD70; not shown: Flag tag (anti-Flag mAb was the coating control) and further fusion parts
T1 sequence (looked up): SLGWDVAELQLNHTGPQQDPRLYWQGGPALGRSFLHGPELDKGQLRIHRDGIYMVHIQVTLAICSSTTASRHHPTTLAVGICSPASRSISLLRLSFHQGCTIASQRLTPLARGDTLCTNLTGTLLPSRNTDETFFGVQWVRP
Procedure: The binding of CD70 mAbs to denatured recombinant CD70 was assessed by ELISA. Recombinant CD70 was denatured by heating for 5 minutes at 95° C., followed by immediate cooling on ice for 5 minutes. A microtiter plate was coated with 5 μg/ml CD70 with or without denaturation. The plate was blocked and the CD70 mAbs for testing were applied at 10 μg/ml. After washing, binding of the mAbs was detected using anti-human IgG-HRP. As a positive control for the coating, instead of using the CD70 mAbs, an anti-Flag mouse-derived mAb was applied and detection was with anti-mouse-HRP. TMB was used as a substrate and OD at 620 nm was measured. […] Amongst the other mAbs, some are also binding to denatured CD70 (fe 5F4, 9G2, 57B6).

[2] = molecular target: T2, human CD70 expressed on the surface of cells (human, UniProt P32970 1-193); assay: cell-based or functional assay
T2 sequence (looked up): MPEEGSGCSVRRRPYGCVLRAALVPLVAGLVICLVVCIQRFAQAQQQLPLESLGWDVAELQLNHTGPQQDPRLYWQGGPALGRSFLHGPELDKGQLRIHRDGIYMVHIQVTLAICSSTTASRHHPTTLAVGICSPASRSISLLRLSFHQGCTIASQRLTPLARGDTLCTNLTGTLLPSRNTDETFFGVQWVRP

[3] = molecular target: T2, human CD70 expressed on the surface of …; assay: flow cytometry on 786-O cells, anti-human Fc-FITC
Procedure: Fluorescence of 10,000 cells/condition was measured using a flow cytometer and the median fluorescence was plotted.

[4] = molecular target: T3, recombinant human CD70 (Flag-TNC-CD70) (human, UniProt P32970 39-193); assay: inhibition ELISA; Flag-TNC-CD70 captured by anti-Flag mAb; competitor CD27-Fc
T3 construct: extracellular domain; Captured by anti-Flag mAb in ELISA; as 'recombinant human CD70' immobilised on Biacore CM5 chips; TNC is for trimerisation; also called recombinant CD70; human recombinant CD70; not shown: Flag tag and TNC trimerisation domain
T3 sequence (looked up): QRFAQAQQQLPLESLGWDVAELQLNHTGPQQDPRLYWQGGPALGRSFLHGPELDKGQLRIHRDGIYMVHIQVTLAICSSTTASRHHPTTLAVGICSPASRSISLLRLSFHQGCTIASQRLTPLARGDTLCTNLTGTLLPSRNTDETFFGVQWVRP
Procedure: From selected phage transfected into TG1, individual colonies were picked randomly for growth in 96 well plates. After IPTG induction according to standard protocols periplasmic fractions (penis) containing Fabs were prepared. […] In this assay, Flag-TNC-CD70 is captured by an anti-Flag mAb and binding of CD27-Fc is detected via a biotinylated anti-CD27 mAb and strep-HRP in the absence or presence of CD70 Fabs (FIGS. 2 and 3) or CD70 mAbs (FIG. 4). In FIG. 2B it can be seen that 27B3, which has an identical VH as 9D1, but contains a somewhat different light chain, seems to block binding of CD27 to CD70 more efficiently, which was in line with the better off rate of this Fab as measured on Biacore (data not shown). Table 3 indicates the blocking potency (expressed as IC50) for the various llama-human chimeric mAbs tested in the CD70 inhibition ELISA. […] FIG. 3 is a composite of an experiment testing llama CD70 Fabs for blocking activity (in the inhibition ELISA, see white bars) and for CD70 binding (binding ELISA, black bars). For the binding ELISA, Flag-TNC-CD70 is captured by an anti-Flag mAb and binding of the Fabs is detected using an anti-myc-HRP mAb, which recognizes the MYC tag fused to the C-terminus of the Fd fragment. For comparison purposes, known monoclonal antibodies to CD70 (SGN70 described in US 2010/0129362 A1, clone 1F6; and MDX69A7 described in WO2008/074004 FIGS. 5A and 5B) were tested in parallel. […] Of interest is clone 59D10, which as Fab has no blocking activity, but when converted into a chimeric IgG was antagonistic (see Table 3). Amino acid sequences of the VH and VL domains of binding and blocking llama-derived Fab clones are shown elsewhere herein (Tables 6-9).

[5] = molecular target: T4, recombinant human CD27 Fc chimera (CD27-Fc) (human, UniProt P26842 21-192); assay: ELISA; captured Flag-TNC-CD70
T4 construct: Bought reagent; also called recombinant CD27-Fc; Fc part of the bought chimera not given
T4 sequence (looked up): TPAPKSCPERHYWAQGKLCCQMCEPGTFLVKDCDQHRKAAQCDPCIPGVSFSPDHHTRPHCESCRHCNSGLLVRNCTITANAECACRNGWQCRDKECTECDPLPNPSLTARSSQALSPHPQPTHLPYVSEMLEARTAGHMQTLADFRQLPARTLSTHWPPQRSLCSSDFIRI

[6] = molecular target: T2, human CD70 expressed on the surface of …; assay: cell-based or functional assay; remark: listed apart in the source

binding result [1]: no binding (tested: 10 µg/ml (text))
B1: 6D5 (antibody, V domains shown)
VH: EVQLVQPGAELRKPGASVKVSCKASGYTFTSYYIDWVRQAPGQGLEWMGRIDPEDGGTKYAQKFQGRVTFTADASTSTAYVELSSLRSEDTAVYYCASRRRDFDYWGQGTQVTVSS
VL: QSALTQPSAVSVSLGQTARITCQGGNARFSSFAWYQQKPGQAPVQVIYYNTNRPSGIPARFSGSSSGGAATLTISGAQAEDEADYYCQSYESGNYVFGGGTTLTVLG
notes: the mAb format of 6D5 is not described in the text; also called 6D5 mAb

IC50 (ng/ml), IL-8 secretion in Raji / HT1080-CD27 co-culture assay [2]: 54 ng/mL | EC50 (read off the curve) [3]: ~60 ng/mL | IC50 [4]: 0.254 µg/mL
B2: 4D2 chimeric llama-human mAb (antibody, human IgG1, V domains shown)
VH: QVQLQESGPGLVKPSQTLSLACTVSGGSITTSYYYWSWIRQPPGKGLEWMGAIGSRGSTYYSPSLKTRTSISRDTSKNQFTLQLSSVTPEDTAVYYCARVTGEITYNSGSYYYTLNLFDYWGQGTQVTVSS
VL: QSVLTQPPSLSASPGSSVRLTCTLSSGNSVGNYDISWYQQKAGSPPRYLLYYYSDSYKNQGSGVPSRFSGSKDPSANAGLLLISGLQAEDEADYYCSVSNSGTYKPVFGGGSKLTVLG

IC50 (ng/ml), IL-8 secretion in Raji / HT1080-CD27 co-culture assay [2]: 32 ng/mL | EC50 (read off the curve) [3]: ~200 ng/mL | IC50 [4]: 0.296 µg/mL
B3: 5F4 chimeric llama-human mAb (antibody, human IgG1, V domains shown)
VH: EVQVQESGGGLVHPGGSLKLSCAASGFTFDTYAMSWVRQAPGKGLEWVSAISWSGGETFYAESMKGRFTISRNNAKNTLYLQMNSLKSEDTAVYYCARGMGLAEGLTDWGQGTQVTVSS
VL: QAVVTHPPSLSASPGSSVRLTCTLISGDNIGGYDISWYQQKTGSPPRYLLYYYSDSYKHQSSGVPSRFSGSKDASANAGLLLISGLQSEDEADYYCSAYKSGSYKAPVFGGGTHLTVLG

binding result [5]: binds
B4: human-mouse CD70 chimera chim-1 (Flag-TNC-CD70) (ligand)
chain: HPEPHTAELQLNLTVPRKDPTLRWGAGPALGRSFLHGPELDKGQLRIHRDGIYMVHIQVTLAICSSTTASRHHPTTLAVGICSPASRSISLLRLSFHQGCTIASQRLTPLARGDTLCTNLTGTLLPSRNTDETFFGVQWVRP
modifications: Soluble homotrimer held by the TNC domain; one CD70 ECD chain is given.
notes: also called chimera 1; not shown: N-terminal Flag tag, TNC (tenascin-C) trimerisation domain and any linkers of the Flag-TNC-CD70 construct

binding result [5]: binds
B5: human-mouse CD70 chimera chim-2 (Flag-TNC-CD70) (ligand, not shown: small tags and cut ends)
chain: B4 chain with L35T, D41E, K42E, Q44H, R49Q, I52L, M54R, V55L, I63N
notes: also called chimera 2

binding result [5]: binds
B6: human-mouse CD70 chimera chim-2.2 (Flag-TNC-CD70) (ligand)
chain: B4 chain with L35T, D41E, K42E, Q44H
notes: also called chimera 2.2; not shown: N-terminal Flag tag, TNC trimerisation domain and any linkers of the Flag-TNC-CD70 construct

binding result [5]: binds
B7: human-mouse CD70 chimera chim-2.1 (Flag-TNC-CD70) (ligand)
chain: B4 chain with L35T
modifications: Soluble homotrimer held by the TNC domain; one CD70 ECD chain is given.
notes: also called chimera 2.1; not shown: N-terminal Flag tag, TNC (tenascin-C) trimerisation domain and any linkers of the Flag-TNC-CD70 construct

binding result [5]: binds
B8: human-mouse CD70 chimera chim-2.4 (Flag-TNC-CD70) (ligand, not shown: small tags and cut ends)
chain: B4 chain with L35T, D41E, K42E, Q44H, R49Q, I52L, M54R, V55L
notes: also called chimera 2.4

binding result [5]: binds
B9: human-mouse CD70 chimera chim-3 (Flag-TNC-CD70) (ligand, not shown: small tags and cut ends)
chain: HPEPHTAELQLNLTVPRKDPTLRWGAGPALGRSFTHGPELEEGHLRIHQDGLYRLHIQVTLANCSSPGSTLQHRATLAVGICSPASRSISLLRLSFHQGCTIASQRLTPLARGDTLCTNLTGTLLPSRNTDETFFGVQWVRP
notes: also called chimera 3

Raji co-culture assay IC50 relative to 27B3 [6]: 0.8 fold of 27B3
B10: 53A2 mAb (full-length human IgG1, HEK293) (antibody, V domains shown)
VH: EVQLVESGGGLVQPGGSLRLSCAASGFTFSVYYMNWVRQAPGKGLEWVSDINNEGGTTYYADSVKGRFTISRDNSKNSLYLQMNSLRAEDTAVYYCARDAGYSNHVPIFDSWGQGTLVTVSS
VL: QAVVTQEPSFSVSPGGTVTLTCGLKSGSVTSDNFPTWYQQTPGQAPRLLIYNTNTRHSGVPDRFSGSILGNKAALTITGAQADDEAEYFCALFISNPSVEFGGGTQLTVLG

Raji co-culture assay IC50 relative to 27B3 [6]: 1.6 fold of 27B3
B11: 53H1 mAb (full-length human IgG1, HEK293) (antibody, V domains shown)
VH: B10 VH
VL: B10 VL with A2T

Raji co-culture assay IC50 relative to 27B3 [6]: 1.2 fold of 27B3
B12: 41D12 mAb (full-length human IgG1, HEK293) (antibody, V domains shown)
VH: B10 VH
VL: B10 VL with F10L, S11T

Raji co-culture assay IC50 relative to 27B3 [6]: 1.8 fold of 27B3
B13: 40F1 mAb (full-length human IgG1, HEK293) (antibody, V domains shown)
VH: B10 VH with T57A, L117Q
VL: B10 VL

Raji co-culture assay IC50 relative to 27B3 [6]: 1.4 fold of 27B3
B14: 35G2 mAb (full-length human IgG1, HEK293) (antibody, V domains shown)
VH: B10 VH with S75A, S78T, R87K, A88P
VL: B10 VL with A2T, D32T, T55S, E87D

binding result [5]: binds
B15: human-mouse CD70 chimera chim-4 (Flag-TNC-CD70) (ligand, not shown: small tags and cut ends)
chain: HPEPHTAELQLNLTVPRKDPTLRWGAGPALGRSFTHGPELEEGHLRIHQDGLYRLHIQVTLANCSSPGSTLQHRATLAVGICSPAAHGISLLRGRFGQDCTVALQRLTYLVHGDVLCTNLTGTLLPSRNTDETFFGVQWVRP
notes: also called chimera 4

binding result [1]: no binding (tested: 10 µg/ml (text)) | IC50 (ng/ml), IL-8 secretion in Raji / HT1080-CD27 co-culture assay [2]: 16 ng/mL | IC50 [4]: 0.075 µg/mL
B16: 19G10 chimeric llama-human mAb (antibody, human IgG1, V domains shown)
VH: EVQLQESGGGVVQPGGSLRLSCAASGFTFDDYAMSWVRQAPGKGLEWVSSIYMYDSSTYYADSVKGRFTISTDNAKNTVYLQMNSLKSEDTAVYYCAKDINRSYGSSWSHFGPIFSSWGQGTQVTVSS
VL: NFMLTQPSAVSVSLGQTARITCQGGYYTHWYQQKPGQAPVLVIYVNNNRPSGIPERFSGSSSGNTATLTISGAQAEDEAAYYCQSGSSSTIPVFGGGTKLTVLG

binding result [1]: no binding (tested: 10 µg/ml (text)) | IC50 (ng/ml), IL-8 secretion in Raji / HT1080-CD27 co-culture assay [2]: 517 ng/mL | IC50 [4]: 1.4 µg/mL
B17: 9E1 chimeric llama-human mAb (antibody, human IgG1, V domains shown)
VH: B16 VH
VL: QAVVTQEPSLSVSPGGTVTLTCGLTSGSVTSSNYPDWYQQTPGQAPRLLIYNTNSRHSGVPSRFSGSISGNKAALTITGAQPEDEADYYCNLYMGSGGSKVFGGGTKLTVLG
